Laboratory results reported in patent US20260217797A1 (Takeda / Millennium, published 2026).
Substitutions are numbered along the chain they refer to. Like-named read-outs stand apart in the source and are kept apart here.

T1: MERS-CoV [change] (MERS-CoV, UniProt K9N5Q8 18-725)
T1 sequence: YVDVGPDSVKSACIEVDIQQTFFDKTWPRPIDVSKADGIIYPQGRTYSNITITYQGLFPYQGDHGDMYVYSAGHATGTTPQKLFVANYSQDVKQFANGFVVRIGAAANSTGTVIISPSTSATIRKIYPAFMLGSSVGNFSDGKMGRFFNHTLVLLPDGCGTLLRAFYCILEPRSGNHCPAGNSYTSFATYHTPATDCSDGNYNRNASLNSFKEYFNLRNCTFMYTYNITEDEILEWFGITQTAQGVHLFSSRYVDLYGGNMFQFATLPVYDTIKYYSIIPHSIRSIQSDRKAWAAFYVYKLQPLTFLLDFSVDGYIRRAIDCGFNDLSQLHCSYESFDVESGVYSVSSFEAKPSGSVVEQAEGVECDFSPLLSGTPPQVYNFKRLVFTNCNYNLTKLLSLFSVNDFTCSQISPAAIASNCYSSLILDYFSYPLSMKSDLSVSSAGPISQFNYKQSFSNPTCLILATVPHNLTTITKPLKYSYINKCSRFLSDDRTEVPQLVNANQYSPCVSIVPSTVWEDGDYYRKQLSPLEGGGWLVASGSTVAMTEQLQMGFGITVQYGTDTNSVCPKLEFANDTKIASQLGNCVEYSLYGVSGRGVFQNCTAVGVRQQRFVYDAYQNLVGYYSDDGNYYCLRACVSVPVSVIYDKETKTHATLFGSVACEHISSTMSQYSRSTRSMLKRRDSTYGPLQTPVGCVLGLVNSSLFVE

B1: A-22 (antibody, V domains shown)
VH: not shown
VL: EIVLTQSPGTLSLSPGERATLSCRASQTVRSDLAWYQQKPGQAPRLLIYGASTRATDISDRFSGSGSGTEFTLTISSLQSEDFAVYYCQQYYEWPPHSDSFGGGTKVEIK
B2: A-6 (antibody, V domains shown)
VH: QVQLVQSGGGVVQPGRSLRLSCAASGFTFSNFAMHWVRQAPGKGLEWVAVILYDGINKYYADSVKGRFTISRGNSKNTLSLQMNSLRAEDTAVYYCARAQNYYDRSGTLQLDAFDIWGQGTMVTVSS
VL: DIVMTQSPSSLSASVGDRVTITCRASQGIRNDLGWYQQKPGKAPKLLIYAASSLQSGVPSRFSGSGSGTDFTLTISSLQPEDFATYYCLQDYNYPLTFGGGTKVEIK
B3: A-11 (antibody, V domains shown)
VH: EVQLVESGAEVKKPGSSVMVSCKASGGTFSRYAISWVRQAPGQGLEWMGGIIPVFGIVHYAQKFQGRVTITADKSTSTAYMELSSLRSEDTAAYYCARDRQQQPSPYYYHGMDVWGQGTTVTVSS
VL: DIRLTQSPSSLSASVGDRVTITCQASQDISNYLNWYQQKPGKAPKLLIYDASNLETGVPTRFSGSGSGTDFTFTISSLQPEDIATYYCQQYDNLPLFGGGTKVEIK
B4: A-9 (antibody, V domains shown)
VH: EVQLVESGGGLVKPGRSLRLSCAASGFTFADYAMSWFRQAPGKGLEWVGFIRSKPYGGTTEYAASVKGRFTISRDDSKSIAYLQMNSLKTEDTAVYYCSRDPWYCSGGDCYAVTGSWFDPWGQGTLVTVSS
VL: DIVLTQSPSSLSASVGDRVTITCQASQDIKKYLNWYQQKPGKAPKLLIYDVSNLETGVPSRFSGSGSGTDFTFTISSLQPEDVAIYYCQQYDNLPQTFGQGTKVDIK
B5: A-24.1 Fab (Fab, V domains shown)
VH: B4 VH with A33T, K54E
VL: B4 VL with V3Q, L4M, D105E
B6: A-24 Fab (Fab, V domains shown)
VH: B4 VH
VL: B4 VL with V3Q, L4M, D105E
B7: A-24.3 Fab (Fab, V domains shown)
VH: B4 VH with A33T, K54E
VL: B4 VL with V3Q, L4M, Q27R, N93Q, D105E, K107E
B8: A-19 (antibody, V domains shown)
VH: QVQLVQSGAEVKKPGESLKISCKGSGYSFTSYWIAWVRQMPGKGLEWMGIIYPGDSDTSYSPSFQGQVTISADKSISTAYLQWSSLKASDTAMYYCARGPNKYNWFDTWGQGTLVTVSS
VL: not shown
B9: A-13 (antibody, V domains shown)
VH: QVQLVQSGAEVKKPGASVKVSCKASGYTFTDYYMHWVRQAPGQGLEWMGWINPNSGGTNSAQKFQGRVTMTRDTSINTAYMELSRLRSDDTAVYFCARDSHLAMVRGDFEYWGQGTLVTVSS
VL: QSVLTQPASVSGSPGQSITISCTGTSSDVESYNVVSWYQQHPGKAPKLMIYEVSKRPSGVSHRFSGSKSGNTASLTISGLQAEDESDYYCCSYAGNSTWVFGGGTKLTVL
B10: A-16 (antibody, V domains shown)
VH: QVQLVESGGGLVQPGRSLRLSCAASGFTFDDYAMHWVRQAPGKGLEWVSGISWNSGTIGYADSVKGRFIISRDNAKNSLYLQMNSLRGEDMALYYCGKDRKREDPSLGGMDVWGQGTTVTVSS
VL: SYELTQPPSVSVAPGQTARITCGGNNIGSKSVHWYQQKPGQAPVLVVYDDTDRPSGIPERFSGSNSGNTATLTISRVEAGDEADYYCQVWDSSSDHYVFGTGTKLTVL
B11: A-18 (antibody, V domains shown)
VH: EVQLLESGGGLVQPGGSLRLSCAASGFTFSRYWMHWVRQAPGKGLVWVSRINSDGSSTTYADSVKGRFTISRDNAKNTLYLQMNSLRAEDTAVYYCARELYYYDSRGAEEGEGWFDPWGQGTLVTVSS
VL: QSVLTQPPSVSGAPGQRVTISCTGISSNIGAGYDVHWYQQLPGTAPKLLIYGNSNRPSGVPDRFSASKSGTSAPLAITGLQAEDEADYYCQSSDRSLSGSVFGTGTKLTVL

Legend:
[1] = molecular target: T2, SARS-CoV-2 wild type spike protein (on reporter virus particles) (SARS-CoV-2, UniProt P0DTC2 14-1273); assay: cell-based or functional assay
SARS-CoV1 Spike [change] [2] = molecular target: T3, SARS-CoV1 Spike [change] (SARS-CoV-1, UniProt P59594 14-667); assay: Octet BLI, IgG, monovalent
SARS-CoV-2 Spike S1-His [3] = molecular target: T4, SARS-CoV-2 Spike S1-His (SARS-CoV-2, UniProt P0DTC2 16-685); assay: Octet BLI, IgG, monovalent
[4] = molecular target: T2, SARS-CoV-2 wild type spike protein (on …); assay: cell-based or functional assay; remark: listed apart in the source
[5] = molecular target: T2, SARS-CoV-2 wild type spike protein (on …); assay: cell-based or functional assay; remark: listed apart in the source
[6] = molecular target: T2, SARS-CoV-2 wild type spike protein (on …); assay: cell-based or functional assay; remark: listed apart in the source
SARS-CoV-2 WT RBD = SARS-CoV-2 WT RBD (SARS-CoV-2, UniProt P0DTC2 319-541); assay: Octet BLI single point, monovalent
[7] = molecular target: T2, SARS-CoV-2 wild type spike protein (on …); assay: cell-based or functional assay; remark: listed apart in the source
[8] = molecular target: Bat coronavirus WIV16 spike protein (Bat coronavirus WIV16); assay: cell-based or functional assay
SARS-CoV-1 spike protein = SARS-CoV-1 spike protein (SARS-CoV-1, UniProt P59594 14-1255); assay: cell-based or functional assay
[9] = molecular target: T2, SARS-CoV-2 wild type spike protein (on …); assay: cell-based or functional assay; remark: listed apart in the source
MERS-CoV [change] = molecular target: T1, MERS-CoV [change]; assay: Octet BLI, IgG, monovalent
SARS-CoV1 Spike [change] [10] = molecular target: T3, SARS-CoV1 Spike [change]; assay: Octet BLI, IgG, monovalent; remark: listed apart in the source
SARS-CoV-2 Spike S1-His [11] = molecular target: T4, SARS-CoV-2 Spike S1-His; assay: Octet BLI, IgG, monovalent; remark: listed apart in the source
[12] = molecular target: T2, SARS-CoV-2 wild type spike protein (on …); assay: cell-based or functional assay; remark: listed apart in the source
SARS-CoV-2 S Trimer = SARS-CoV-2 S Trimer (SARS-CoV-2, UniProt P0DTC2 16-1213); assay: Octet BLI, IgG, avid
[13] = molecular target: T2, SARS-CoV-2 wild type spike protein (on …); assay: cell-based or functional assay; remark: listed apart in the source
SARS-CoV-2 Spike S1-His [14] = molecular target: T4, SARS-CoV-2 Spike S1-His; assay: Octet BLI, Fab, monovalent

| Binder | SARS2 IC50 [1] [nM] | PsV neutralization IC50 [5] [µg/mL] | PsV neutralization IC90 [5] [µg/mL] | Kd (SARS-CoV-2 WT RBD) [nM] | PsV Neut Assay IC50 [7] [nM] | binding result (MERS-CoV [change]) | Kd (SARS-CoV-2 Spike S1-His [11]) [nM] | PsV IC50, Test 1 [12] [nM] | PsV IC50, Test 2 [12] [nM] | Kd (SARS-CoV-2 S Trimer) [nM] | PSV IC50 [13] [µg/mL] | binding result (SARS-CoV1 Spike [change] [10]) | also measured |
| --- | --- | --- | --- | --- | --- | --- | --- | --- | --- | --- | --- | --- | --- |
| B1 | 0.06 | 0.749 | 3.55 | 0.325 | – | – | – | – | – | – | – | – | Kd (SARS-CoV1 Spike [change] [2]): 4.51 nM; Kd (SARS-CoV-2 Spike S1-His [3]): 0.244 nM; SARS2 PsV IC50 [4]: 5 nM; WT PsV IC50 [6]: 28.8 nM |
| B2 | 0.023 | 0.173 | 2.03 | 1.18 | 5.85 | no binding | 3.71 | 0.12 | 2.45 | 1.35 | 0.878 | – | PsV neutralization IC50 [8]: 0.074 µg/mL; PsV neutralization IC90 [8]: 16.3 µg/mL; PsV neutralization IC50 (SARS-CoV-1 spike protein): 1.01 µg/mL; PsV neutralization IC50 [9]: 0.015 µg/mL; PsV neutralization IC90 [9]: 0.085 µg/mL; Kd (SARS-CoV1 Spike [change] [10]): 17.2 nM |
| B3 | – | – | – | – | 0.613 | no binding | 6.92 | – | – | 1.29 | 0.092 | no binding | – |
| B4 | 0.03 | 0.011 | 0.164 | – | 0.208 | no binding | 5.89 | 0.03 | 0.04 | 1 | – | no binding | – |
| B5 | – | – | – | – | – | – | – | – | – | – | – | – | Kd (SARS-CoV-2 Spike S1-His [14]): 0.539 nM |
| B6 | – | – | – | – | – | – | – | – | – | – | – | – | Kd (SARS-CoV-2 Spike S1-His [14]): 2.97 nM |
| B7 | – | – | – | – | – | – | – | – | – | – | – | – | Kd (SARS-CoV-2 Spike S1-His [14]): 0.244 nM |
| B8 | – | – | – | – | 34.1 | no binding | 1.15 | – | – | 0.987 | 5.12 | no binding | – |
| B9 | – | – | – | – | 0.155 | no binding | 4.91 | – | – | 0.843 | 0.023 | no binding | – |
| B10 | 0.61 | 0.057 | 0.399 | 2.09 | 1.24 | no binding | 4.85 | 0.28 | 0.54 | 1.15 | 0.186 | no binding | – |
| B11 | 5.9 | 0.303 | 1.82 | 0.527 | 9.88 | no binding | 1.09 | 0.14 | 2.78 | 1.69 | – | – | PsV neutralization IC50 [8]: 0.045 µg/mL; PsV neutralization IC90 [8]: 0.324 µg/mL; PsV neutralization IC50 (SARS-CoV-1 spike protein): 0.043 µg/mL; PsV neutralization IC90 (SARS-CoV-1 spike protein): 0.046 µg/mL; PsV neutralization IC50 [9]: 0.076 µg/mL; PsV neutralization IC90 [9]: 1.38 µg/mL; Kd (SARS-CoV1 Spike [change] [10]): 7.43 nM |
